Assay [1] has as its target T1, recombinant mouse soluble gpNMB (recombinant mouse gpNMB-FLAG-His) (mouse, UniProt Q99P91 23-502).
T1 sequence: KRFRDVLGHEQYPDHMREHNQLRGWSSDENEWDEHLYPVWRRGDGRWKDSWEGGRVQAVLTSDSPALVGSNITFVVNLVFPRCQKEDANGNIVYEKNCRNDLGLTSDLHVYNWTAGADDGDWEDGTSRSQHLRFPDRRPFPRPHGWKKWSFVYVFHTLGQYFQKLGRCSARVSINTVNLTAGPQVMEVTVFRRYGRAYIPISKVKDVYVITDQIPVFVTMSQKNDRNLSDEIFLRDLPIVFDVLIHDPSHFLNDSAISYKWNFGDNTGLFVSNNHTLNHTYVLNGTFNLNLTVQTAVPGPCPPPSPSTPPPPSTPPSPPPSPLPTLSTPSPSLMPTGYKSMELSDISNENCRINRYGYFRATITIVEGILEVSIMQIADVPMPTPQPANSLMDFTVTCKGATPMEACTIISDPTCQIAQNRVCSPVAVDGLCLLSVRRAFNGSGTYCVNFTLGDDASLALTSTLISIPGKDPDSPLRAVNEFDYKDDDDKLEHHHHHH
Briefly: SPR single-cycle kinetics, antibody over captured gpNMB-FLAG-His, 36C, mean of 2.

The target in assay [2] is T2, recombinant human soluble gpNMB (recombinant human gpNMB-FLAG-His) (human, UniProt Q14956 23-498).
T2 sequence: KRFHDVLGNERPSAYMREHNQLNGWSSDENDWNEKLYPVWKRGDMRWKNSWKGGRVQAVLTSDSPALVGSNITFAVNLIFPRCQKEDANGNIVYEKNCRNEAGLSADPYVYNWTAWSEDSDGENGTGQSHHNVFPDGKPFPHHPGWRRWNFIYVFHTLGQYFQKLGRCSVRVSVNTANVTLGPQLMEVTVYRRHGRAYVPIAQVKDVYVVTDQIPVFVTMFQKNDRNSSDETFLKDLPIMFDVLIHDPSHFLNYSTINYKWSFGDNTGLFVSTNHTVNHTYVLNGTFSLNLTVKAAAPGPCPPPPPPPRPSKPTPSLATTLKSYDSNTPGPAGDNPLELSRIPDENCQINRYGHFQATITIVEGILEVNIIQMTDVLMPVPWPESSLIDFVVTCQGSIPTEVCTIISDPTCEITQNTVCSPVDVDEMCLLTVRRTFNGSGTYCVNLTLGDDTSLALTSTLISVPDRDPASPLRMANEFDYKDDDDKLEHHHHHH
The description is as above.

Assay [3] addresses T3, human gpNMB (Human Osteoactivin, His-tag, AcroBioSystems) (human, UniProt Q14956-2 23-486, limits assumed).
T3 sequence (looked up): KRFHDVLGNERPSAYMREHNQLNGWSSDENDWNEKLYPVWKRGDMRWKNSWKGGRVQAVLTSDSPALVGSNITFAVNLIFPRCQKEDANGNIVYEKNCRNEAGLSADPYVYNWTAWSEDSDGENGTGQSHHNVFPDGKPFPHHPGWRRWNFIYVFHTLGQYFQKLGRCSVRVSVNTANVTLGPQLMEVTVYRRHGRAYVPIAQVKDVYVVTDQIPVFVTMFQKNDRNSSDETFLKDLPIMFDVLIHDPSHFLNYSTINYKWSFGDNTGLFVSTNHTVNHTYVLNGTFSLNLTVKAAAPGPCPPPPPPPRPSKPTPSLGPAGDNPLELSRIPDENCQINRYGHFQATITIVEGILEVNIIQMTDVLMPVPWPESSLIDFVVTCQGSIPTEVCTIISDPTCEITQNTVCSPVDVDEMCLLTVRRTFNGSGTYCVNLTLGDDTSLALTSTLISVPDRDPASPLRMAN
Briefly: SPR Biacore 8K, antibody captured on protein A, gpNMB as analyte. (In general: SPR reads the build-up and loss of mass on a sensor chip optically.)

The target of assay [4] is T2, recombinant human soluble gpNMB …. Briefly: antigen ELISA.
For assay [5] the target is unchanged. Briefly: antigen ELISA, vs hGPN06-1_H1L1. On the technique in general: An ELISA detects its analyte on a solid surface through an enzyme-linked reagent.
For assay [6] the target is unchanged. Briefly: antigen ELISA. This is another data set of the same source.
Assay [7] has the same target. Briefly: antigen ELISA, vs hGPN18-2_H2L3.

Numbering of substitutions follows the chain as printed. In names and notes the source's numbering stands. Read-outs that look alike come from different tables or passages of the source.

B1: hGPN18-5_H0L0 (antibody, V domains shown)
VH: QVQLQQSGAELAKPGTSVKMSCKASGYTFTTYWMNWVKQRPGQDLEWIGAINPSNDYTEYNQKFKDKAILTADKSSNTAYMQLSSLTSEDSAVYYCGRSYSPDYWGQGTTLTVSS
VL: DIVMTQSQKFMSTSVGDRVSVTCKASQNVDNHVAWHQQKPGQSPKALIYSASYRYSGVPDRFTGSGSGTDFTLTIRDVQSEDLADYFCQQYKSYPFTFGSGTELEIK
notes: chimeric antibody with mouse GPN18-5 variable regions (VH0, VL0); also called hGPN18-5_VH0+VL0; HGPN18-5_VH0+VL0
Turning to B1, the dissociation constant Kd came out at 5.31 nM in assay [1], 3.08 nM in assay [2] and 237 nM in assay [3]. Besides, the results for the koff in assay [1], in assay [2] and in assay [3] were 0.00075 s⁻¹, 0.000727 s⁻¹ and 0.002 s⁻¹, respectively. The kon turned out to be 142000 M⁻¹ s⁻¹ in assay [1], 237000 M⁻¹ s⁻¹ in assay [2] and 8440 M⁻¹ s⁻¹ in assay [3].

B2: hGPN18-5_H3L1 (antibody, V domains shown)
VH: QVQLVQSGAEVKKPGASVKVSCKASGYTFTTYWMNWVRQAPGQGLEWIGAINPSNDYTEYNQKFKDRAIMTADKSTSTVYMELSSLRSEDTAVYYCGRSYSPDYWGQGTTVTVSS
VL: DIQMTQSPSSLSASVGDRVTITCKASQNVDNHVAWFQQKPGKAPKALIYSASYRYSGVPSRFSGSGSGTDFTLTISSLQPEDFATYFCQQYKSYPFTFGGGTKLEIK
notes: humanized; also called hGPN18-5 VH3+VL1
With B2, in assay [1], the Kd turned out to be 17.8 nM, the koff is 0.000862 s⁻¹ and the kon amounted to 52900 M⁻¹ s⁻¹. Moreover, in assay [2], the Kd was 11.3 nM, the koff was found to be 0.00138 s⁻¹ and the kon was 142000 M⁻¹ s⁻¹. In assay [3], this molecule had a Kd of 711 nM, a koff of 0.00484 s⁻¹ and a kon of 6810 M⁻¹ s⁻¹.

B3: hGPN18-5_H1L1 (antibody, V domains shown)
VH: B2 VH with A68V, I69T, K74T
VL: B2 VL
notes: humanized; also called hGPN18-5_VH1+VL1
As for B3, in assay [1], the Kd stood at 21.9 nM, the koff amounted to 0.00143 s⁻¹ and the kon came out at 73800 M⁻¹ s⁻¹. Also, in assay [2], the Kd is 16.2 nM, the koff was 0.00307 s⁻¹ and the kon was 308000 M⁻¹ s⁻¹. In assay [3], this molecule registered a Kd of 651 nM, a dissociation rate constant (koff) of 0.00432 s⁻¹ and a kon of 6640 M⁻¹ s⁻¹.

B4: hGPN06-1_H1L1 VH D110A (antibody, V domains shown)
VH: QVQLVQSGAEVKKPGASVKVSCKASGYTFTDNWMGWVKQRPGQGLEWIGAIDPSDSFTNYNQNFKGRVTMTVDTSISTAYMELSRLRSDDSAVYFCTRSGYYGSPKLGGAYWGQGTLVTVSS
VL: EIVLTQSPSSLSASVGDRVTITCSASSSISYMHWYQQKSGTAPKLLIYSTSNLASGVPSRFSGSGSGTDFTFTISSLQPEDAATYYCHQWNSYPCTFGGGTKLEIK
In the case of B4, the EC50 in assay [4] worked out at 0.956 nM. For the same molecule, the Relative binding activity in assay [5] is 0.79.

B5: hGPN06-1_H1L1 VH P105A (antibody, V domains shown)
VH: B4 VH with P105A, A110D
VL: B4 VL
Take B5: in assay [4], the EC50 stood at 1.18 nM. Besides, the Relative binding activity in assay [5] was 1.09.

B6: hGPN06-1_H1L1 VH Y111A (antibody, V domains shown)
VH: B4 VH with A110D, Y111A
VL: B4 VL
On to B6, for which the EC50 in assay [4] worked out at 0.584 nM. Besides, in assay [5], the Relative binding activity was found to be 0.99.

B7: hGPN06-1_H1L1 VH K106A (antibody, V domains shown)
VH: B4 VH with K106A, A110D
VL: B4 VL
In the case of B7, in assay [4], the 50% effective concentration (EC50) was 0.441 nM. The Relative binding activity in assay [5] came to 1.

B8: hGPN06-1_H1L1 VH S99A (antibody, V domains shown)
VH: B4 VH with S99A, A110D
VL: B4 VL
On to B8, for which the EC50 in assay [4] was found to be 0.587 nM. In addition, in assay [5], the Relative binding activity was 0.92.

B9: hGPN06-1_H1L1 VH T97A (antibody, V domains shown)
VH: B4 VH with T97A, A110D
VL: B4 VL
B9: the EC50 in assay [4] came to 0.36 nM. For the same molecule, the Relative binding activity in assay [5] was 0.98.

B10: hGPN06-1_H1L1 VH L107A (antibody, V domains shown)
VH: B4 VH with L107A, A110D
VL: B4 VL
B10: the EC50 in assay [4] came to 1.05 nM. Further, the Relative binding activity in assay [5] was determined as 0.71.

B11: hGPN06-1_H1L1 VH Y102A (antibody, V domains shown)
VH: B4 VH with Y102A, A110D
VL: B4 VL
For the molecule B11, in assay [4], the 50% effective concentration (EC50) came out at 2.21 nM. The Relative binding activity in assay [5] amounted to 0.68.

B12: hGPN06-1_H1L1 VH S104A (antibody, V domains shown)
VH: B4 VH with S104A, A110D
VL: B4 VL
Consider B12, for which the EC50 in assay [4] was found to be 0.712 nM. Besides, the Relative binding activity in assay [5] was 0.88.

B13: hGPN06-1_H1L1 VH G103A (antibody, V domains shown)
VH: B4 VH with G103A, A110D
VL: B4 VL
In the case of B13, the EC50 in assay [4] stood at 0.762 nM. Also, the Relative binding activity in assay [5] is 1.14.

B14: hGPN06-1_H1L1 VH R98A (antibody, V domains shown)
VH: B4 VH with R98A, A110D
VL: B4 VL
B14: the EC50 in assay [4] amounted to 53.2 nM. In assay [5], the Relative binding activity came out at 0.05.

B15: hGPN06-1_H1L1 VH Y101A (antibody, V domains shown)
VH: B4 VH with Y101A, A110D
VL: B4 VL
Consider B15, for which the EC50 in assay [4] came out at 0.502 nM. The Relative binding activity in assay [5] worked out at 1.04.

B16: hGPN06-1_H1L1 VH G108A (antibody, V domains shown)
VH: B4 VH with G108A, A110D
VL: B4 VL
As for B16, in assay [4], the concentration for a half-maximal effect (EC50) was 0.476 nM. Besides, the Relative binding activity in assay [5] is 0.96.

B17: hGPN06-1_H1L1 VH G100A (antibody, V domains shown)
VH: B4 VH with G100A, A110D
VL: B4 VL
With B17, the EC50 in assay [4] stood at 65.8 nM. In addition, in assay [5], the Relative binding activity was determined as 0.06.

B18: hGPN06-1_H1L1 VH G109A (antibody, V domains shown)
VH: B4 VH with G109A, A110D
VL: B4 VL
As to B18, the EC50 in assay [4] is 4.89 nM. The Relative binding activity in assay [5] was determined as 0.34.

B19: hGPN18-2_H2L3 VH Y112A (antibody, V domains shown)
VH: QVQLVQSGPGLVQPTQTLTLTCSFSGFSLSTSVMGVGWIRQPSGKGLEWLADIWWDDDKDYNPSLKSRLTISKDTSKNQVVLTMTNMDTVDTATYYCARTYYSNYEYYGMDAWGQGTLVTVSS
VL: DIVMTQSPDSLAVSLGERATINCRSSQTIILSNGNTYLEWYQQKPGQPPKLLIYKVSNRFSGVPDRFSGSGSGTDFTLTISSLQAEDVAVYYCFQGSHVPFTFGSGTKLEIKR
As to B19, the EC50 in assay [6] worked out at 3.73 nM. For the same molecule, in assay [7], the Relative binding activity came to 1.05.

The term Kd denotes the constant that tells how readily two partners part at equilibrium. For orientation: koff means a measure of how fast the partners let go of each other. What is called kon is a measure of how fast the partners come together. What is called EC50 is the concentration at which the effect is half-maximal.

The values above are taken from patent EP4772193A1 (Teijin Pharma Limited, dated 2026).
